The values that follow come from patent US20190328837A1 (Stanford University, published 2019).

In assay [1] the target is T1, wild-type CNTFR-HIS (human, UniProt P26992 23-342).
T1 construct: also called wtCNTFR-HIS; HIS tagged CNTFR; not shown: HIS tag
T1 sequence: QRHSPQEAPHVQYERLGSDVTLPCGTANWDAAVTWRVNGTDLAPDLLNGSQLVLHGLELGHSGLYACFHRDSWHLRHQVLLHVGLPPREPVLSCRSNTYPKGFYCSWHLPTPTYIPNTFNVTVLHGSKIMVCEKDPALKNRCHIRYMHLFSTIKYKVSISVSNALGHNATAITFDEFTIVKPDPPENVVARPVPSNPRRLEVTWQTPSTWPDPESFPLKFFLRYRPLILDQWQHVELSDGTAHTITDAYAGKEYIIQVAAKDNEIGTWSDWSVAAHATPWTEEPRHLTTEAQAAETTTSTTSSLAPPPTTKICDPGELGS
Description: flow cytometry, yeast-displayed CLCF1 construct, soluble CNTFR titrated, apparent Kd. (In general: A flow cytometer gives signals particle by particle.)

Assay [2] addresses T2, wild-type CNTFR-Fc (human, UniProt P26992 23-342).
T2 construct: also called wtCNTFR-Fc; not shown: Fc domain; captured with anti-mouse Fc antibody
T2 sequence: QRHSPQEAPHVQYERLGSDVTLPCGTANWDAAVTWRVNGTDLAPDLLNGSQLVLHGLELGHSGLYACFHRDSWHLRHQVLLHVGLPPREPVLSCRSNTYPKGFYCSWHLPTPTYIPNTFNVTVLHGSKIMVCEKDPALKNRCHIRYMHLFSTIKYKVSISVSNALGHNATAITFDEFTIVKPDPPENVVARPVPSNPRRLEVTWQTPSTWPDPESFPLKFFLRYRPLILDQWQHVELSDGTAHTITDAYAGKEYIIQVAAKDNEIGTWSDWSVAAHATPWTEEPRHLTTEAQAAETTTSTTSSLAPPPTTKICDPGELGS
Briefly: sandwich ELISA, soluble CLCF1 titrated against 2 nM CNTFR-Fc, anti-mouse-Fc capture, anti-CLCF1 detection. The protocol:
(§1) The CLCF1 variants isolated from screening were cloned into the pET28b bacterial expression plasmid and expressed and purified. […] A sandwich ELISA was performed using an anti-mouse Fc antibody as a capturing agent for wtCNTFR-Fc, followed by an anti-CLCF1 antibody as a detection agent for the bound complex. […] ELISA was also used to measure binding interactions with the gp130 and LIFR beta receptors.
(§2) To measure the solution-phase binding interaction between the CLCF1 constructs and CNTFR, different concentrations of soluble, recombinant CLCF1 variants and wtCLCF1 were incubated with 2 nM CNTFR-Fc in BPBS for 12 h at room temperature. The mixture was then added to 96-well plates coated with anti-mouse-Fc antibody for 1 h followed by washing with BPBS twice. Subsequently, the wells were incubated with 1:1000 diluted anti-CLCF1 rabbit antibody for 2 h at room temperature then washed four times with BPBS. The wells were incubated with a 1:1000 diluted HRP conjugated anti-rabbit antibody for 2 h at room temperature, and washed four times with BPBS. 1-Step Ultra TMB ELISA was used for the readout, which was measured using a plate reader (Tecan).
(An ELISA detects its analyte on a solid surface through an enzyme-linked reagent.)

Assay [3] has as its target T2, wild-type CNTFR-Fc. Briefly: cell-free ELISA, HIS-tagged soluble CLCF1 titrated against 2 nM CNTFR-Fc, anti-HIS capture, HRP anti-mouse detection. The procedure: 96-well plates were coated with 10 μg/mL of anti-HIS antibody overnight and blocked with 5% milk for 1 h. The plates were then washed twice with BPBS. Different concentrations of soluble constructs of HIS-tagged CLCF1 variants were incubated with 2 nM CNTFR-Fc in BPBS for 12 h at room temperature. The mixture was then added to 96-well plates coated with anti-HIS antibody for 1 h followed by washing with BPBS twice. Subsequently, the wells were incubated with 1:1000 diluted HRP conjugated anti-mouse antibody for 1 h at room temperature then washed four times with PBS. 1-Step Ultra TMB ELISA (Thermo Fisher Scientific) was used for the readout detected using a plate reader (Tecan).

The target of assay [4] is T1, wild-type CNTFR-HIS. Briefly: yeast surface display, equilibrium titration with CNTFR-HIS, flow cytometry (apparent Kd). The procedure: (§3) Using equilibrium binding conditions and screened by flow cytometric sorting (FACS), high throughput screening of the CLCF1 library using wtCNTFR-HIS was performed to enrich variants showing increased CLCF1 binding. Expression signal was used to normalize CNTFR binding to distinguish high expressers from high affinity binders. Screening stringency was increased throughout sorting by decreasing the concentration of wtCNTFR-HIS incubated with the library. […] Thus a variant containing the three mutations (named FRR-CLCF1) was chosen for further characterization (FIG. 7).
(§4) Yeast displaying CLCF1 constructs were incubated with varying concentrations of CNTFR for 12 h at room temperature to reach equilibrium binding. This was followed by washing with BPBS and resuspension in PBSA with 1:500 ratio of chicken anti-c-Myc (Invitrogen) for 30 min at 4 C. Yeast were then washed and pelleted, and secondary labeling was performed on ice for 30 min using PBSA with 1:100 dilution of goat anti-chicken PE (Santa Cruz) and mouse anti-HIS Hilyte Fluor 488 (Anaspec). Then samples were washed and analyzed by flow cytometry using Accuri (BD Biosciences). Samples were analyzed on BD Bioscience software, and data were analyzed using FlowJo software. Kd values were determined by fitting to a four-parameter sigmoidal curve. Error bars represent the standard deviation of triplicate experiments.

Assay [5] has as its target T1, wild-type CNTFR-HIS. Description: flow cytometry, yeast-displayed CLCF1 construct, soluble CNTFR-HIS titrated, anti-HIS Hilyte Fluor 488 detection. The protocol:
as §3, §4

Assay [6] has as its target T1, wild-type CNTFR-HIS. Description: flow cytometry, yeast-displayed CLCF1 construct, soluble CNTFR titrated.
The target in assay [7] is T2, wild-type CNTFR-Fc. Description: sandwich ELISA, soluble CLCF1 titrated against 2 nM CNTFR-Fc, apparent Kd. The protocol: as §1, §2

As usually defined, the EC50 (read off the curve) is the concentration needed to bring the measured effect to its halfway point.

B1: v2 (ligand)
CLCF1 variant displayed on yeast as Aga2p fusion with c-myc tag: LNRTGDPGPGPSIQKTYDLTRYLEHQLRSLAGTYLNYLGPPFNEPDFNPPRLGAETLPRATVDLEVWRSLNDKLRLTQNYEAYSHFLCYLRGLNRRAATAELRRSLAHFCTSLQGLLGSIAGVMAALGYPLPQPLPGTEPTWTPGPARSDFLQKMDDFWLLKELQTWLLRSAKDFNRLKKKMQPPAAAVTLHLGAHGF
On to B1, for which the Kd in the assay with wild-type CNTFR-HIS [1] was 0.22 nM.

B2: recombinant soluble wild-type human CLCF1 (ligand)
chain: LNRTGDPGPGPSIQKTYDLTRYLEHQLRSLAGTYLNYLGPPFNEPDFNPPRLGAETLPRATVDLEVWRSLNDKLRLTQNYEAYSHLLCYLRGLNRQAATAELRRSLAHFCTSLQGLLGSIAGVMAALGYPLPQPLPGTEPTWTPGPAHSDFLQKMDDFWLLKELQTWLWRSAKDFNRLKKKMQPPAAAVTLHLGAHGF
notes: Expressed in E. coli from pET28b and purified from inclusion bodies by RP-HPLC; also called wtCLCF1; wild-type CLCF1
As for B2, the “EC50 (read off the curve)” value with wild-type CNTFR-Fc [2] and in the assay with wild-type CNTFR-Fc [3] was about 80 nM each time.

B3: yeast-displayed CLCF1 variant L86F (ligand)
chain: LNRTGDPGPGPSIQKTYDLTRYLEHQLRSLAGTYLNYLGPPFNEPDFNPPRLGAETLPRATVDLEVWRSLNDKLRLTQNYEAYSHFLCYLRGLNRRAATAELRRSLAHFCTSLQGLLGSIAGVMAALGYPLPQPLPGTEPTWTPGPAHSDFLQKMDDFWLLKELQTWLWRSAKDFNRLKKKMQPPAAAVTLHLGAHGF
In the case of B3, the Kd in the assay with wild-type CNTFR-HIS [4] came out at 3.1 nM.

B4: yeast-displayed CLCF1 variant H148R (ligand)
chain: LNRTGDPGPGPSIQKTYDLTRYLEHQLRSLAGTYLNYLGPPFNEPDFNPPRLGAETLPRATVDLEVWRSLNDKLRLTQNYEAYSHLLCYLRGLNRRAATAELRRSLAHFCTSLQGLLGSIAGVMAALGYPLPQPLPGTEPTWTPGPARSDFLQKMDDFWLLKELQTWLWRSAKDFNRLKKKMQPPAAAVTLHLGAHGF
On to B4, for which the Kd with wild-type CNTFR-HIS [4] amounted to 4.2 nM.

B5: yeast-displayed FRR-CLCF1 (L86F, Q96R, H148R) (ligand, not shown: large carriers; small tags and cut ends)
chain: LNRTGDPGPGPSIQKTYDLTRYLEHQLRSLAGTYLNYLGPPFNEPDFNPPRLGAETLPRATVDLEVWRSLNDKLRLTQNYEAYSHFLCYLRGLNRRAATAELRRSLAHFCTSLQGLLGSIAGVMAALGYPLPQPLPGTEPTWTPGPARSDFLQKMDDFWLLKELQTWLWRSAKDFNRLKKKMQPPAAAVTLHLGAHGF
notes: also called the variant with all three mutations
As for B5, the “EC50 (read off the curve)” value in the assay with wild-type CNTFR-HIS [5] and in the assay with wild-type CNTFR-HIS [6] was about 1 nM each time. Moreover, in the assay with wild-type CNTFR-HIS [1], the Kd came out at 0.83 nM.

B6: v3 (ligand)
soluble CLCF1 variant: LNRTGDPGPGPSIQKTYDLTRYLEHQLRSLAGTYLNYLGPPFNEPDFNPPRLGAETLPRATVDLEVWRSLNDKLRLTQNYEAYSHLLCYLRGLNRRAATAELRRSLAHFCTSLQGLLGSIAGVMAALGYPLPQPLPGTEPTWTPGPARSDFLQKMDDFWLLKELQTWLWRSAKDFNRLKKKMQPPAAAVTLHLGAHGF
As for B6, in the assay with wild-type CNTFR-Fc [2], the 50% effective concentration (EC50 (read off the curve)) is about 2 nM. Besides, the Kd in the assay with wild-type CNTFR-Fc [7] worked out at 2.5 nM.

B7: v4 (ligand)
CLCF1 variant displayed on yeast as Aga2p fusion with c-myc tag: LNRTGDPGPGPSIQKTYDLTRYLEHQLRSLAGTYLNYLGPPFNEPDFNPPRLGAETLPRATVDLEVWRSLNDKLRLTQNYEAYSHFLCYLRGLNRRAATAELRRSLAHFCTSLQGLLGSIAGVMAALGYPLPQPLPGTEPTWTPGPARSDFLQKMDDFWLLKELQTWLLRSAKDFNRLKRKMQPPAAAVTLHLGAHGF
notes: The five consensus mutations without Y22C
With B7, in the assay with wild-type CNTFR-HIS [6], the “EC50 (read off the curve)” value is about 0.4 nM. For the same molecule, the Kd with wild-type CNTFR-HIS [1] came to 0.08 nM.

B8: v5 (ligand)
CLCF1 variant displayed on yeast as Aga2p fusion with c-myc tag: LNRTGDPGPGPSIQKTYDLTRCLEHQLRSLAGTYLNYLGPPFNEPDFNPPRLGAETLPRATVDLEVWRSLNDKLRLTQNYEAYSHFLCYLRGLNRRAATAELRRSLAHFCTSLQGLLGSIAGVMAALGYPLPQPLPGTEPTWTPGPARSDFLQKMDDFWLLKELQTWLWRSAKDFNRLKKKMQPPAAAVTLHLGAHGF
With B8, the Kd in the assay with wild-type CNTFR-HIS [1] turned out to be 0.18 nM.

B9: yeast-displayed CLCF1 variant Q96R (ligand, not shown: large carriers; small tags and cut ends)
chain: LNRTGDPGPGPSIQKTYDLTRYLEHQLRSLAGTYLNYLGPPFNEPDFNPPRLGAETLPRATVDLEVWRSLNDKLRLTQNYEAYSHLLCYLRGLNRRAATAELRRSLAHFCTSLQGLLGSIAGVMAALGYPLPQPLPGTEPTWTPGPAHSDFLQKMDDFWLLKELQTWLWRSAKDFNRLKKKMQPPAAAVTLHLGAHGF
With B9, in the assay with wild-type CNTFR-HIS [5], the “EC50 (read off the curve)” value is about 6 nM. Besides, the Kd in the assay with wild-type CNTFR-HIS [4] came out at 7.9 nM.

B10: v2 (ligand)
soluble CLCF1 variant: LNRTGDPGPGPSIQKTYDLTRYLEHQLRSLAGTYLNYLGPPFNEPDFNPPRLGAETLPRATVDLEVWRSLNDKLRLTQNYEAYSHFLCYLRGLNRRAATAELRRSLAHFCTSLQGLLGSIAGVMAALGYPLPQPLPGTEPTWTPGPAHSDFLQKMDDFWLLKELQTWLWRSAKDFNRLKKKMQPPAAAVTLHLGAHGF
Take B10: the “EC50 (read off the curve)” value in the assay with wild-type CNTFR-Fc [2] was about 2 nM. The Kd in the assay with wild-type CNTFR-Fc [7] came out at 2.3 nM.

B11: v1 (ligand)
soluble CLCF1 variant: LNRTGDPGPGPSIQKTYDLTRYLEHQLRSLAGTYLNYLGPPFNEPDFNPPRLGAETLPRATVDLEVWRSLNDKLRLTQNYEAYSHLLCYLRGLNRRAATAELRRSLAHFCTSLQGLLGSIAGVMAALGYPLPQPLPGTEPTWTPGPAHSDFLQKMDDFWLLKELQTWLWRSAKDFNRLKKKMQPPAAAVTLHLGAHGF
Consider B11, for which the “EC50 (read off the curve)” value in the assay with wild-type CNTFR-Fc [2] was about 6 nM. The Kd with wild-type CNTFR-Fc [7] was 6.6 nM.

B12: yeast-displayed CLCF1 variant with Y22C, L86F, Q96R, H148R, W169L, K180R (ligand, not shown: large carriers; small tags and cut ends)
chain: LNRTGDPGPGPSIQKTYDLTRCLEHQLRSLAGTYLNYLGPPFNEPDFNPPRLGAETLPRATVDLEVWRSLNDKLRLTQNYEAYSHFLCYLRGLNRRAATAELRRSLAHFCTSLQGLLGSIAGVMAALGYPLPQPLPGTEPTWTPGPARSDFLQKMDDFWLLKELQTWLLRSAKDFNRLKRKMQPPAAAVTLHLGAHGF
notes: also called the resulting variant (five consensus mutations combined with Y22C)
In the case of B12, the “EC50 (read off the curve)” value with wild-type CNTFR-HIS [6] is about 0.1 nM. Moreover, the Kd with wild-type CNTFR-HIS [1] is 0.06 nM.

B13: v3 (ligand)
CLCF1 variant displayed on yeast as Aga2p fusion with c-myc tag: LNRTGDPGPGPSIQKTYDLTRYLEHQLRSLAGTYLNYLGPPFNEPDFNPPRLGAETLPRATVDLEVWRSLNDKLRLTQNYEAYSHFLCYLRGLNRRAATAELRRSLAHFCTSLQGLLGSIAGVMAALGYPLPQPLPGTEPTWTPGPARSDFLQKMDDFWLLKELQTWLWRSAKDFNRLKRKMQPPAAAVTLHLGAHGF
With B13, the Kd with wild-type CNTFR-HIS [1] was 0.28 nM.
